Data as given in patent publication US20160038607A1 (UNIVERSITY OF NOTRE DAME DU LAC, published 2016).
Each block holds one binder with its values, some of them ahead of it. Bridges are numbered along the chain shown (N, C = ends). Where no end group is shown, it is not given here.

Key:
[1] = biological target: T1, Human Epidermal Growth Factor Receptor 2 (HER2) (human, UniProt P04626 23-1255); experiment: cell-based or functional assay
[2] = biological target: T1, Human Epidermal Growth Factor Receptor …; experiment: flow cytometry, fluorescein labeled peptide on BT-474 cells, on ice
Experimental: (§1) For HER2 expression assays, cells were incubated with primary antibody in binding buffer on ice for 1 hour and washed twice. Fluorescein conjugated secondary antibody was added for 1 hour on ice, samples were washed, and analyzed on Guava easyCyte 8HT flow cytometer (Millipore). Isotype matched antibodies were used as negative controls. For cell-based peptide binding assays, cells were incubated with increasing concentrations of fluorescein-conjugated peptides for 2 hours on ice. Samples were washed twice and analyzed on Guava easyCyte 8HT flow cytometer.

[3] = biological target: T1, Human Epidermal Growth Factor Receptor …; experiment: flow cytometry, fluorescein labeled peptide on SK-BR-3 cells, on ice
Experimental: as §1

cellular uptake of liposomes at 2% peptide density, fold enhancement [1]: ~10 fold
cellular uptake of liposomes by BT-474 and SK-BR-3 cells, 3 h (flow cytometry), fold greater than control [1]: ~9 fold
cellular uptake of liposomes by BT-474 cells at 24 h, fold greater than control liposomes [1]: ~5 fold
cellular uptake of liposomes by SK-BR-3 cells at 24 h, fold greater than control liposomes [1]: ~4 fold
B1: HER2-pep-EG12-PA conjugate on PEG350 coated liposomes (95:10:3:2 HSPC:CHOL:PEG350:HER2-pep) (peptide)
peptide: YCDGFYACYMDV
modifications: disulfide 2-8 (inferred); not fully specified (N-terminus); also: displayed on PEG350-coated liposomes

Kd [2]: 1.97 µM
Kd [3]: 1.75 µM
Binder: YCDGFYACYMDV (disulfide 2-8 (inferred); also: fluorescein label, position not given here) [HER2-antagonist peptide (HER2-pep), fluorescein labeled]
